Measured values taken from paper PMC9061257.

Molecular target: pseudouridine kinase from Escherichia coli strain B (EcPUKI), wildtype (E. coli strain B) (UniProt P30235)
Assay: SEC

stoichiometry N: 2
Substance: pseudouridine kinase from Escherichia coli strain B (EcPUKI), wildtype (from UniProt P30235 1-313) (enzyme)
